Reference: US7326418B2, “Identification of novel factors that block programmed cell death or apoptosis by targeting JNK” (University of Chicago, priority 2001, dated 2008)
Ends that are not written are not given here.

Legend:
GST-Gadd45β = molecular target: T1, GST-Gadd45β (Mus musculus, UniProt P22339); assay: GST pull-down of in vitro translated MKK7 peptides with GST-Gadd45β; format: binding, murine; details: fused to eGFP
T1 construct: Murine and human, full-length Gadd45J3 proteins were purified from E. coli as GST-Gadd45β and His6-tagged Gadd45β; made in house; host or cells: E. coli BL21 (pGEX-3X)
T1 sequence (P22339 1-160): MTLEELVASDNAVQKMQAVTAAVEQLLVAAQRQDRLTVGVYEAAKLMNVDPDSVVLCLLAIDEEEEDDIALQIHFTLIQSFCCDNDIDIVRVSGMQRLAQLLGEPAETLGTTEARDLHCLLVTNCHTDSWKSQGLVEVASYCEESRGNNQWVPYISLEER

gadd45β−/− MEFs = assay: Apoptosis assay with TAT peptides, Gadd45β null MEFs; format: cell-based, mouse; details: HIV-TAT-fused peptides; MEFs at passage 4
Source text: (§1) A-B, Apoptosis assays showing that peptide 1 effectively promotes killing by TNFα in IκBαM-Gadd45β and Neo 3DO clones, respectively. C-D, Apoptosis assays showing that both peptide 1 and peptide 2 can facilitate TNFα-induced cytotoxicity in wild-type MEFs, and that only peptide 2 promotes this killing in Gadd45β null MEFs, respectively. (C-D), MEFs were from twin embryos and were used at passage (p)4. A-D, Values (expressed as arbitrary units) were obtained by subtracting background values with untreated cells from values with TNFα-treated cells, and represent the mean (+/−standard deviation) of three experiments.
(§2) Treatments were as follows: murine TNFα (Peprotech), 1,000 U/ml, 10 U/ml, or 1,000 U/ml plus 0.3 μg/ml cycloheximide (CHX; FIG. 33); human TNFα (Peprotech), 2,000 U/ml; PMA plus ionomycin (Sigma), 100 ng/ml and 1 μM, respectively. Treatments with H2O2 and sorbitol were as described previously. In FIG. 33, pre-treatment with HIV-TAT peptides (5 μM) or DMSO was for 30 minutes and incubation with TNFα was for an additional 4 and 3.5 hours, respectively. In FIG. 33, peptides were used at 10 μM and incubation with TNFα was for 4 hours. Apoptosis was measured by using the Cell Death Detection ELISA PLUS kit (Roche). […]

wild-type MEFs = assay: Apoptosis assay with TAT peptides, wild-type MEFs; format: cell-based, mouse; details: HIV-TAT-fused peptides; MEFs at passage 4
Source text: as §1, §2

[1] = molecular target: T2, MKK7 inhibition by Gadd45β (Mus musculus, UniProt P22339); assay: MKK7 kinase assay: peptide interference with MKK7 inhibition by Gadd45β; format: biochemical; details: GST-Gadd45β pre-incubated with peptides 20 min; FLAG-MKK7 from TNFα-treated 293 cells
T2 construct: Murine and human, full-length Gadd45J3 proteins were purified from E. coli as GST-Gadd45β and His6-tagged Gadd45β; made in house; host or cells: GST-Gadd45β from E. coli; FLAG-MKK7 immunoprecipitated from transfected, TNFα-treated 293 cells
T2 sequence (P22339 1-160): T1 sequence (P22339 1-160)
Method: (§3) FLAG-MKK7 was immunoprecipitated from TNFα-treated (10 minutes) 293 cells. b, c, are apoptosis assays showing that peptide 1 promotes killing by TNFα in IκBαM-Gadd45β and Neo clones, respectively. Values (expressed as arbitrary units) were obtained by subtracting background values with untreated cells from values with TNFα-treated cells, and represent the mean (+/−standard deviation) of three experiments.
To define interaction regions and determine whether they are sufficient for binding, Gadd45β association with overlapping peptides spanning these regions (FIG. 29e) was determined. […] This is reminiscent of the mechanism by which p27^KIP1 inhibits cyclin-dependent kinase (CDK)2. A question explored was whether MKK7, Gadd45β-binding peptides interfered with the Gadd45β ability to suppress kinase activity.
GST precipitations with in vitro-translated proteins or purified proteins (FIG. 26-30), and kinase assays were performed. […] MKK7 phosphorylation was monitored by performing immunoprecipitations with anti-P-MKK7 antibodies (developed at Cell Signaling) followed by Western blots with anti-total MKK7 antibodies. […]

IκBαM-Gadd45β 3DO cells = assay: Apoptosis assay (Cell Death Detection ELISA) with TAT peptides, IκBαM-Gadd45β 3DO clones; details: for TNFα-induced killing of IκBαM-Gadd45β cells: HIV-TAT-fused peptides 5 μM, 30 min pre-treatment, then TNFα
Method: Treatments were as follows: murine TNFα (Peprotech), 1,000 U/ml (FIG. 27) or 10 U/ml (FIG. 30); human TNFα (Peprotech), 2,000 U/ml; PMA plus ionomycin (Sigma), 100 ng/ml and 1 μM, respectively. In FIG. 30, pre-treatment with HIV-TAT peptides (5 μM) or DMSO was for 30 minutes and incubation with TNFα was for an additional 7 and 3.5 hours, respectively. Apoptosis was measured by using the Cell Death Detection ELISA^PLUS kit (Roche).
Treatments were as follows: murine TNFα (Peprotech), 1,000 U/ml, 10 U/ml, or 1,000 U/ml plus 0.3 μg/ml cycloheximide (CHX; FIG. 33); human TNFα (Peprotech), 2,000 U/ml; PMA plus ionomycin (Sigma), 100 ng/ml and 1 μM, respectively. […] In FIG. 33, pre-treatment with HIV-TAT peptides (5 μM) or DMSO was for 30 minutes and incubation with TNFα was for an additional 4 and 3.5 hours, respectively. In FIG. 33, peptides were used at 10 μM and incubation with TNFα was for 4 hours. Apoptosis was measured by using the Cell Death Detection ELISA PLUS kit (Roche).

[2] = tested on: Neo 3DO cells (NF-κB-proficient); assay: Apoptosis assay (Cell Death Detection ELISA) with TAT peptides, Neo 3DO clones; format: cell-based
Method: as §3
A-B, Apoptosis assays showing that peptide 1 effectively promotes killing by TNFα in IκBαM-Gadd45β and Neo 3DO clones, respectively. […] A-D, Values (expressed as arbitrary units) were obtained by subtracting background values with untreated cells from values with TNFα-treated cells, and represent the mean (+/−standard deviation) of three experiments.
Treatments were as follows: murine TNFα (Peprotech), 1,000 U/ml (FIG. 27) or 10 U/ml (FIG. 30); human TNFα (Peprotech), 2,000 U/ml; PMA plus ionomycin (Sigma), 100 ng/ml and 1 μM, respectively. […] Apoptosis was measured by using the Cell Death Detection ELISA^PLUS kit (Roche).
Treatments were as follows: murine TNFα (Peprotech), 1,000 U/ml, 10 U/ml, or 1,000 U/ml plus 0.3 μg/ml cycloheximide (CHX; FIG. 33); human TNFα (Peprotech), 2,000 U/ml; PMA plus ionomycin (Sigma), 100 ng/ml and 1 μM, respectively. […] Apoptosis was measured by using the Cell Death Detection ELISA PLUS kit (Roche). […]

GST-MKK7 = molecular target: T3, GST-MKK7 (Homo sapiens, UniProt O14733, Q133P/Q94H); assay: GST pull-down, GST-MKK7-coated beads with in vitro-translated Gadd45β products; format: binding
T3 construct: made in house; host or cells: E. coli BL21
T3 sequence (O14733 1-401 Q94H/Q133P limits assumed): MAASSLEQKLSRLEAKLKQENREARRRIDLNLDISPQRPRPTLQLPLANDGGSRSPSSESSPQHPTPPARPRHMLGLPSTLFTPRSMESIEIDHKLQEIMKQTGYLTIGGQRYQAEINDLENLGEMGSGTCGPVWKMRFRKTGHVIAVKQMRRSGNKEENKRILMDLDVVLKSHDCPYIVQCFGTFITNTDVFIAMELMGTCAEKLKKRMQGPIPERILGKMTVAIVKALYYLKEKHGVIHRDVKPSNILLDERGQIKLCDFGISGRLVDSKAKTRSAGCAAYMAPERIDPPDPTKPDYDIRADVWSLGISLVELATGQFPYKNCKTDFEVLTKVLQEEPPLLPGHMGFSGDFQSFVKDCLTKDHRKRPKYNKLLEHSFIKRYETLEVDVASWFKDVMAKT
Method: GST pull-down assays were performed using GST- or GST-MKK7-coated beads and in vitro-translated, Gadd45β products corresponding to the polypeptidic fragments indicated in FIG. 36A.
To generate Gadd45β polypeptides, in vitro reactions were primed with pBS-GFP-Gadd450 plasmids, encoding green fluorescent protein (GFP) directly fused to FL or truncated Gadd45β. To obtain these plasmids, pBS-Gadd45β(FL), pBS-Gadd45β (41-160), pBS-Gadd45 (60-160), pBS-Gadd45β (69-160), pBS-Gadd45β (87-160), and pBS-Gadd45β (113-160)—encoding the corresponding amino acid residues of murine Gadd45β were generated—by cloning appropriate gadd45β cDNA fragments into the XhoI and HindIII sites of pBS SK−. These plasmids, encoding either FL or truncated Gadd45β, were then opened with KpnI and XhoI, and the excised DNA fragments were replaced with the KpnI-BsrGI fragment of pEGFP-N1 (Clontech; containing the GFP-coding sequence) directly joined to the following oligonucleotide linker: 5′-[…]-3′ (SEQ ID NO: 48). These constructs were designated as pBS-GFP-Gadd45β. Gadd45β C-terminal deletions were obtained as described for the JNKK2 deletions by using pBS-GFP-Gadd45β(FL) that had been digested with the NgoMI, SphI, or EcoRV restriction enzymes to direct protein synthesis in vitro. These plasmids encoded the 1-134, 1-95, and 1-68 amino acid fragments of Gadd45β, respectively. […]

Row | Substance | binding to GST-Gadd45β (GST-Gadd45β) | TNFα-induced killing in gadd45β−/− MEFs (gadd45β−/− MEFs) | cytokine (TNFα)-induced toxicity in wild-type fibroblasts (wild-type MEFs) | prevention of MKK7 inhibition by Gadd45β [1] | basal toxicity in IκBαM-Gadd45β cells (IκBαM-Gadd45β 3DO cells; HIV-TAT-fused peptide, no TNFα) | TNFα-induced killing of IκBαM-Gadd45β cells (IκBαM-Gadd45β 3DO cells) | toxicity in untreated Neo cells ([2]; HIV-TAT-fused peptide, no TNFα) | TNFα-induced killing of NF-κB-proficient (Neo) cells ([2]; HIV-TAT-fused peptides 5 μM, 30 min pre-treatment, then TNFα) | binding to MKK7 in vitro (GST-MKK7)
1 | NH2-TGHVIAVKQMRRSGNKEENKRILMD-COOH (H-TGHVIAVKQMRRSGNKEENKRILMD-OH; listed as Homo sapiens) [peptide 2, aa 142-166 of MKK7/JNKK2] | does not bind | retained (and, in fact, enhanced) | enhanced |  |  |  |  |  | 
2 | peptide 1: MKK7 peptide 132-156, Gadd45β-interacting, spans ATP-binding site K149; fused to cell-permeable HIV-TAT peptide for cell assays (GPVWKMRFRKTGHVIAVKQMRRSGN; also: fused to HIV-TAT peptide for cell assays; listed as Homo sapiens) | sufficient to recapitulate this binding | completely insensitive | enhanced | prevented MKK7 inhibition by Gadd45β | marginal basal toxicity | markedly increased susceptibility | minimal toxicity | promoted TNFα-induced killing | 
3 | IALQIHFTLIQSFCCDND [69-86 amino acid region of Gadd45β, positions 69-86 of Gadd45β] |  |  |  |  |  |  |  |  | sufficient to bind to MKK7
4 | peptide 7: MKK7 peptide 220-234, Gadd45β-interacting; fused to HIV-TAT peptide for cell assays (GKMTVAIVKALYYLK; also: fused to HIV-TAT peptide for cell assays; listed as Homo sapiens) | sufficient to recapitulate this binding |  |  | did not |  | no effect |  |  | 
